Publication PMC8939769

Target: SARS-CoV-2 spike protein receptor binding domain (RBD) (SARS-CoV-2) (UniProt P0DTC2)
Experiment: ELISA

Substance: AZD7442 (combination of AZD8895 and AZD1061)
- IC50: 0.065 µg/mL
